Results on 1 substance are retold here after patent publication US5273966.

Assay [1] has as its target high molecular weight binding protein (150K) in normal human serum (human). The experiment in a line: radiolabelled IGF-1 incubated with serum; area under the curves of the high and low molecular weight peaks.
The target of assay [2] is high molecular weight binding protein (150K) in normal rat serum (rat). The description is as above.

O-glycosylated IGF-1 (ligand): the percent bound to the large molecular weight form compared to the authentic IGF-1 in assay [1] and in assay [2] was 50 to 60% each time.
